Experimental data taken from doi:10.1101/2023.08.28.555102 (bioRxiv, 2023).
Changes are numbered by the printed parent chain.

Tests used:
Assay in all cases: ITC
[1] = target: T1, tH2 (aa91-189) mutant W^132A (vaccinia virus, UniProt P08583 91-189, W^132A)
T1 sequence: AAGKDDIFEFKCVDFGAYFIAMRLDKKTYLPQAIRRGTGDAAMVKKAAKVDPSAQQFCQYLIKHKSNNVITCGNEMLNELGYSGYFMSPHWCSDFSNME

[2] = target: T2, tH2 (aa91-189) mutant R^125R^126A (vaccinia virus, UniProt P08583 91-189, R^125R^126A | R^125R^126A)
T2 sequence: T1 sequence with R35A, R36A, A42W

[3] = target: T3, tH2 (aa91-189) mutant G^127G^129A (vaccinia virus, UniProt P08583 91-189, G^127G^129A | G^127G^129A)
T3 sequence: T1 sequence with G37A, G39A, A42W

[4] = target: T4, tH2 (aa91-189) mutant K^116K^117A (vaccinia virus, UniProt P08583 91-189, K^116K^117A | K^116K^117A)
T4 sequence: T1 sequence with K26A, K27A, A42W

[5] = target: T5, tH2 (aa91-189) mutant D^130A (vaccinia virus, UniProt P08583 91-189, D^130A)
T5 sequence: T1 sequence with D40A, A42W

[6] = target: T6, tH2 (aa91-189) mutant D^141A (vaccinia virus, UniProt P08583 91-189, D^141A)
T6 sequence: T1 sequence with A42W, D51A

B1: recombinant A28 (aa56-146) (domain or fragment)
chain: DRRVQDVNDTISDVKQKWRCVVYPGNGFVSASIFGFQAEVGPNNTRSIRKFNTMQQCIDFTFSDVININIYNPCVVPNINNAECQFLKSVL
binding result [1]: binds | binding result [2]: binds | binding result [3]: binds | Kd [4]: ~5.3 µM | binding result [5]: binds | binding result [6]: binds
